Legend:
[1] = biological target: SARS-COV-2 RBD (SARS-COV-2) (UniProt P0DTC2); assay: ELISA, RBD coated
[2] = biological target: SARS-CoV-2 receptor-binding domain (WT RBD; S protein residues 319-539) (SARS-CoV-2) (UniProt P0DTC2); assay: BLI (Octet Red), IgG on protein A biosensor, WT RBD in solution, 1:1 fit

C144 (antibody)
EC50 [1]: 1.83 ng/mL
Kd [2]: 714 nM

Reference: patent US20240218057A1
